The values that follow come from patent CN114195889A (NANJING FUJIEKANG BIOTECHNOLOGY CO LTD, dated 2022).

This test concerns the target T1, 人源重组SARS-Cov-2-N蛋白 (SARS-CoV-2, UniProt P0DTC9 1-419).
T1 construct: range 1-419; also called SARS-Cov-2-N重组蛋白; 新冠病毒N蛋白
Nature of the test: ELISA dose-response on coated N protein. In general terms: In an ELISA, binding on a coated surface is turned into a signal by an enzyme label.

B1: 纳米抗体1B2 (VHH)
VHH: ESGGGSVQAGGSLKLSCVAFGYTYTSGCMGWFRQAPGKGREGVATICNTDGTTAYANSVKGRFTISQDNAKNTVYLQMNSLKAEDSAMYYCAAGRTPYELASGGKNWGQGTQVTVSS
notes: also called VHH4
Regarding B1, the binding result is on record as “binds”.
